Measurements: patent US6495144B2, “EBNA2 peptides and methods of using same” (Johns Hopkins University School of Medicine, priority 1996, dated 2002)
“Also recorded” adds a separate entry of the source. Marks after values point to notes of the source that are not given here.

Experiments:
CBF1/RBPJk = target: T1, CBF1/RBPJk (Homo sapiens, UniProt Q06330); assay: EMSA of EBNA2/CBF1 complex formation with in vitro translated EBNA2 peptides; assay type: binding; details: for behaviour in EMSA (competition for CBF1 complex, formation of supershifted EBNA2/CBF1 complex): equimolar in vitro translated peptides, Cp CBF1 binding site probe
T1 construct: EMSA using CBF1 purified by heparin-agarose chromatography; endogenous in cells; host or cells: CA46 cells (fractionated extract, heparin-agarose)
From the text: FIG. 3 is an autoradiogram that depicts the effect of mutations on the ability of an EBNA2 (i.e., E2) peptide comprising amino acids 252-425 to interact with CBF1/RBPJk: probe (lane 1); E2 only (lane 2); lysate (lane 3); CBF1 (lane 4); CBF1 and lysate (lane 5); CBF1 and E2 252-425 (lane 6); CBF1 and del376-425 (lane 7); CBF1 and del343-425 (lane 8); CBF1 and del252-366 (lane 9); CBF1 and del252-309, del398-425 (lane 10); CBF1 and del344-357 (lane 11); CBF1 and II307SR (CR5) (lane 12); CBF1 and GP320SR (CR6) (lane 13); CBF1 and WW323SR (CR6) (lane 14); CBF1 and PI326SR (CR6) (lane 15); CBF1 and SR360VD (PKC) (lane 16); and CBF1 and LGL389SRT (CR7) (lane 17). Results of an EMSA using CBF1 purified by heparin-agarose chromatography and a 30-base pair oligonucleotide probe containing the Cp CBF1 binding site (Ling et al. (1993a), supra) are shown. The wild-type EBNA2 and mutant EBNA2 peptides spanning amino acids 252-425 were in vitro transcribed and translated, and equimolar amounts were added to the binding reactions. Addition of unprogrammed reticulocyte lysate to the CBF1 extract (+lysate) produced a minor bandshift that migrated in the range of the E2/CBF1 complex. The EBNA2/CBF1 complexes (i.e., E2/CBF1 complexes) vary in mobility depending on the size of the added EBNA2 peptide.
FIG. 6 is an EMSA that compares the ability of type A EBNA2 (i.e., EBNA2 comprising amino acids 252-425) and the homologous domains of type B (i.e., EBNA2 comprising amino acids 216-392) and HVP EBNA2 (i.e., HBP EBNA2 comprising amino acids 288-470) to form complexes with CBF1/RBPJk. The EBNA2 peptides and CBF1/RPBPJk were prepared by in vitro transcription and translation. EBNA2 peptides were added with two-fold increases in amount (black triangles) to a binding mixture containing a constant amount of CBF1/RBPJk and a 30-base pair Cp CBF1 binding site probe. Symbols: P, probe only; R, reticulolysate.
The relative positions of the various functional domains the EBNA2 protein are depicted in FIG. 1. To define the amino acids required for interaction with CBF1, various synthetic peptides comprising the promoter targeting domain (i.e., the CBF1/RBPJk interaction domain) were constructed. The truncated and mutated peptides diagrammed in FIG. 2 were synthesized by in vitro transcription-translation, and were tested for their ability to form complexes with CBF1 that could be detected in an electrophoretic mobility shift assay (EMSA) (Ling et al., J. Virol., 69, 1944-1950 (1995)). The expressed peptides were tested using a fractionated extract of EBV negative lymphoblastoid CA46 cells (American Type Culture Collection, Rockville, Md.). The peptides were labeled with ^35S-methionine, and their integrity was confirmed by sodium dodecylsulfate sulfate-polyacrylamide gel electrophoresis (SDS-PAGE). To ensure that equal amounts of the EBNA2 peptides were added to each binding reaction mixture, the SDS-PAGE bands were quantitated using a Molecular Dynamics Phosphorimager, and the volume of the samples was adjusted on the basis of peptide size and the number of methionine residues.

[1] = tested on: EBV latency C promoter (Cp-CAT); assay: Cp-CAT transactivation by EBNA2 effector DNAs cotransfected in DG75 cells; assay type: cell-based, Epstein-Barr virus; details: for transactivation of Cp-CAT, dose-response, in words: 0-2.0 μg effector DNA, 2 μg target; for % Transactivation: relative EBNA2 transactivation of the Cp, at DNA concentrations giving 50% acetylation for wild-type EBNA2, mutations in full-length EBNA2
Procedure: FIGS. 4A-4B are graphs that depict μg effector versus % acetylation for transactivation in DG75 cells of a Cp-CAT construction (Ling et al. (1993b), supra) cotransfected at 2 μg with increasing amounts (i.e., 0, 0.25, 0.5, 1.0 and 2.0 μg) of the indicated EBNA2 effector DNAs. Immunoblot analysis confirmed the equivalent expression of the different EBNA2 effector constructions in transfected cells.
FIGS. 7A-7B are graphs that depict μg effector versus fold-induction for cotransfection assays comparing the ability of type A EBNA2 and type B EBNA2 to transactivate expression from Cp-CAT (FIG. 7A) and CD23p-CAT (FIG. 7B) (Ling et al. (1994), supra) in DG75 cells. The target plasmids were transfected at a constant amount (2 μg) and the effector DNAs at increasing amounts of 0, 0.25, 0.5, 1.0 and 2.0 μg.
In order to correlate the effect of the mutations on CBF1 interaction measured in the in vitro binding assays with the effects on CBF1 interaction in vivo in cultured cells, the point mutations and the glycine-arginine deletion were incorporated into full-length EBNA2 proteins which were used to study EBNA2 targeting in transactivation assays. The mutant proteins were synthesized in equal abundance in transfected cells as assessed by Western blot analysis. FIGS. 4A and 4B compare the ability of wild-type and mutant EBNA2 proteins to transactivate expression from the EBV latency C promoter in a dose-response assay (Ling et al. (1993b), supra).

[2] = linear range of the assay, 0.5 μg effector DNA

T1 sequence (Q06330 whole entry): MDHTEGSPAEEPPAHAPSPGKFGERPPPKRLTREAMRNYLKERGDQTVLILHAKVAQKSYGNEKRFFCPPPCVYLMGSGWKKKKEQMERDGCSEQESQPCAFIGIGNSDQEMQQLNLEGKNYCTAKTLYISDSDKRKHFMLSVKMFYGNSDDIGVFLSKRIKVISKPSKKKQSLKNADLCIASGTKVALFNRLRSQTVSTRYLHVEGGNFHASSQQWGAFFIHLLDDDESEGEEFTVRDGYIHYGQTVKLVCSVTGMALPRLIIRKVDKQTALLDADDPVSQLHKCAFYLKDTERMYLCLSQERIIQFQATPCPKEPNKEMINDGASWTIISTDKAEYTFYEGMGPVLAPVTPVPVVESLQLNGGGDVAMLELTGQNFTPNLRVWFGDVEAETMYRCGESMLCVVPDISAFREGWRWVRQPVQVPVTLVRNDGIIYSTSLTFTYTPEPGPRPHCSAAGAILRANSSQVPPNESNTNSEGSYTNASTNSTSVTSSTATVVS

Row | Molecule | behaviour in EMSA (competition for CBF1 complex, formation of supershifted EBNA2/CBF1 complex) (CBF1/RBPJk) | transactivation of Cp-CAT, dose-response, in words [1] | % Transactivation [1] | transactivation of Cp-CAT relative to wild-type EBNA2 ([1]; highest levels of effector DNA) | transactivation of Cp-CAT relative to wild-type EBNA2 [1, 2] | amount of peptide required to convert all the CBF1 to the supershifted complex, versus type A EBNA2 (CBF1/RBPJk; in vitro translated CBF1/RBPJk, two-fold increases of peptide) | % Complex formation (CBF1/RBPJk; EBNA2/CBF1 supershifted complex relative to wild-type EBNA2(252-425), phosphoimager, reticulocyte lysate background subtracted) | behaviour in EMSA (competition for CBF1 complex, formation of supershifted EBNA2/CBF1 complex) (CBF1/RBPJk; listed as glycine-arginine deletion)
1 | WW323SR (CR6): EBNA2 with tryptophans 323 and 324 in CR6 changed to SR (protein) MPTFYLALHGGQTYHLIVDTDSLGNPSLSVIPSNPYQEQLSDTPLIPLTIFVGENTGVPPPLPPPPPPPPPPPPPPPPPPPPPPPPPPSPPPPPPPPPPPQRRDAWTQEPSPLDRDPLGYDVGHGPLASAMRMLWMANYIVRQSRGDRGLILPQGPQTAPQARLVQPHVPPLRPTAPTILSPLSQPRLTPPQPLMMPPRPTPPTPLPPATLTVPPRPTRPTTLPPTPLLTVLQRPTELQPTPSPPRMHLPVLHVPDQSMHPLTHQSTPNDPDSPEPRSPTVFYNIPPMPLPPSQLPPPAAPAQPPPGVINDQQLHHLPSGPPSRPPICDPPQPSKTQGQSRGQSRGRGRGRGRGRGKGKSRDKQRKPGGPWRPEPNTSSPSMPELSPVLGLHQGQGAGDSPTPGPSNAAPVCRNSHTATPNVSPIHEPESHNSPEAPILFPDDWYPPSIDPADLDESWDYIFETTESPSSDEDYVEGPSKRPRPSIQ | did not compete for the CBF1 complex and produced little or no EBNA2/CBF1 supershifted complex | inability of this mutant to transactivate the Cp even at high doses of effector | 0% |  |  |  |  | 
2 | PI326SR (CR6): EBNA2 with PI at 326 in CR6 changed to SR (protein) MPTFYLALHGGQTYHLIVDTDSLGNPSLSVIPSNPYQEQLSDTPLIPLTIFVGENTGVPPPLPPPPPPPPPPPPPPPPPPPPPPPPPPSPPPPPPPPPPPQRRDAWTQEPSPLDRDPLGYDVGHGPLASAMRMLWMANYIVRQSRGDRGLILPQGPQTAPQARLVQPHVPPLRPTAPTILSPLSQPRLTPPQPLMMPPRPTPPTPLPPATLTVPPRPTRPTTLPPTPLLTVLQRPTELQPTPSPPRMHLPVLHVPDQSMHPLTHQSTPNDPDSPEPRSPTVFYNIPPMPLPPSQLPPPAAPAQPPPGVINDQQLHHLPSGPPWWPSRCDPPQPSKTQGQSRGQSRGRGRGRGRGRGKGKSRDKQRKPGGPWRPEPNTSSPSMPELSPVLGLHQGQGAGDSPTPGPSNAAPVCRNSHTATPNVSPIHEPESHNSPEAPILFPDDWYPPSIDPADLDESWDYIFETTESPSSDEDYVEGPSKRPRPSIQ | did not compete for the CBF1 complex and produced little or no EBNA2/CBF1 supershifted complex; also recorded: severely impaired the ability of the peptide to form a complex with CBF1 in an EMSA |  | 2^c % | 20% | 2% |  |  | 
3 | GP320SR (CR6): EBNA2 with two non-hydrophobic residues GP at 320 in CR6 changed to SR (protein) MPTFYLALHGGQTYHLIVDTDSLGNPSLSVIPSNPYQEQLSDTPLIPLTIFVGENTGVPPPLPPPPPPPPPPPPPPPPPPPPPPPPPPSPPPPPPPPPPPQRRDAWTQEPSPLDRDPLGYDVGHGPLASAMRMLWMANYIVRQSRGDRGLILPQGPQTAPQARLVQPHVPPLRPTAPTILSPLSQPRLTPPQPLMMPPRPTPPTPLPPATLTVPPRPTRPTTLPPTPLLTVLQRPTELQPTPSPPRMHLPVLHVPDQSMHPLTHQSTPNDPDSPEPRSPTVFYNIPPMPLPPSQLPPPAAPAQPPPGVINDQQLHHLPSSRPWWPPICDPPQPSKTQGQSRGQSRGRGRGRGRGRGKGKSRDKQRKPGGPWRPEPNTSSPSMPELSPVLGLHQGQGAGDSPTPGPSNAAPVCRNSHTATPNVSPIHEPESHNSPEAPILFPDDWYPPSIDPADLDESWDYIFETTESPSSDEDYVEGPSKRPRPSIQ | had no effect on the behavior of the peptide in the EMSA | mirrored that of wild-type EBNA2 | 120% |  |  |  |  | 
4 | type B EBNA2 comprising amino acids 216-392: homologous CBF1 interaction domain of human type B EBNA2, in vitro translated (protein) GHQLSLPPHPPPHQSTPHCSSDSTGLPPPPTSYSIPSMTLSPEPLPPPAAPAHPLPGVIYDQQALPPTPGPPWWPPVRDPTPTTQTPPTNTKQGPDQGQGRGRWRGRGRSKGRGRMHKLPEPRRPGPDTSSPSMPQLSPVVSLHQGQGPENSPTPGPSTAGPVCRVTPSATPDISPI | bound CBF1 comparably to type A EBNA2 |  |  |  |  | two-fold more |  | 
5 | del344-357: EBNA2 with glycine-arginine repeats removed by deletion of amino acids 344-357 (protein) MPTFYLALHGGQTYHLIVDTDSLGNPSLSVIPSNPYQEQLSDTPLIPLTIFVGENTGVPPPLPPPPPPPPPPPPPPPPPPPPPPPPPPSPPPPPPPPPPPQRRDAWTQEPSPLDRDPLGYDVGHGPLASAMRMLWMANYIVRQSRGDRGLILPQGPQTAPQARLVQPHVPPLRPTAPTILSPLSQPRLTPPQPLMMPPRPTPPTPLPPATLTVPPRPTRPTTLPPTPLLTVLQRPTELQPTPSPPRMHLPVLHVPDQSMHPLTHQSTPNDPDSPEPRSPTVFYNIPPMPLPPSQLPPPAAPAQPPPGVINDQQLHHLPSGPPWWPPICDPPQPSKTQGQSRGQGKSRDKQRKPGGPWRPEPNTSSPSMPELSPVLGLHQGQGAGDSPTPGPSNAAPVCRNSHTATPNVSPIHEPESHNSPEAPILFPDDWYPPSIDPADLDESWDYIFETTESPSSDEDYVEGPSKRPRPSIQ | did not negatively affect EBNA2/CBF1 complex formation |  | 150% |  | 150% |  | 100% | did not negatively affect complex formation in the EMSA
